Here are results for 6 substances from the supplement of paper PMC5998384.

Series [1] has as its system HeLa Kyoto. As to the kind of experiment: solubility change mitosis vs G1/S (difference of NP-40 vs SDS log2 ratios) (log2 ratio difference); higher = more soluble in mitosis.
Series [2] relates to HeLa Kyoto. As to the kind of experiment: solubility in G1/S (NP-40 vs SDS abundance) (log2 ratio); higher = more soluble. The conditions noted are these: cell cycle stage: G1/S.
In series [3] the test system is HeLa Kyoto. As to the kind of experiment: thermal stability score vs G1/S (z-score of summed log2 fold changes over temperatures); higher = more thermally stable than in G1/S.
The mark [4] stands for this setting: cell cycle stage: early G1 (4.5 h after nocodazole release).
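Wherever solubility change mitosis vs G1/S (difference of NP-40 vs SDS log2 ratios) is given: synchronized HeLa Kyoto cells (double thymidine block for G1/S, nocodazole release for mitosis), protein amounts in NP-40 versus SDS lysates quantified by mass spectrometry, three biological replicates.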
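Wherever solubility in G1/S (NP-40 vs SDS abundance) is given: HeLa Kyoto cells arrested at G1/S by double thymidine block, proteins quantified by TMT10plex mass spectrometry in mild NP-40 versus SDS extracts, three biological replicates.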
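Wherever thermal stability score vs G1/S (z-score of summed log2 fold changes over temperatures) is given: synchronized HeLa Kyoto cells, proteins quantified by TMT10plex mass spectrometry, three biological replicates, mitosis taken 0.5 h after nocodazole release, G1/S directly after double thymidine block.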

SOX13, sequence (chain, as listed by the source): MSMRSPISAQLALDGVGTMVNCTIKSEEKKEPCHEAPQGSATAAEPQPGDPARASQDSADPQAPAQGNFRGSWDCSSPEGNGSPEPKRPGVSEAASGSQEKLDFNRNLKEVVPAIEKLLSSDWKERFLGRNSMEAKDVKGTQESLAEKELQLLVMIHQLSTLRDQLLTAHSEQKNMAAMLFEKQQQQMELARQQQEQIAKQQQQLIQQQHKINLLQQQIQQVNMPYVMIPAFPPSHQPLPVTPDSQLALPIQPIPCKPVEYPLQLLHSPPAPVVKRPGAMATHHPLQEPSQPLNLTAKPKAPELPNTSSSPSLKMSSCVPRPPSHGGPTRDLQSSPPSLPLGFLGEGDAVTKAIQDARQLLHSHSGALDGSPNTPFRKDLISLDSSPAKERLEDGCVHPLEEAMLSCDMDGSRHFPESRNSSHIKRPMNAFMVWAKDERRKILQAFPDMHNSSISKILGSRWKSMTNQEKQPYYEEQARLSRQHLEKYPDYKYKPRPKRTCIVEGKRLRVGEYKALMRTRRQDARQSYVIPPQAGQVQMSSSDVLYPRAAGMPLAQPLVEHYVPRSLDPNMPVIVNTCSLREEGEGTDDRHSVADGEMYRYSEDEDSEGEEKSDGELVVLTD

Turning to “MTTAQRDSLLWKLAGLLRESGDVVLSGCSTLSLLTPTLQQLNHVFELHLGPWGPGQTGFVALPSHPADSPVILQLQFLFDVLQKTLSLKLVHVAGPGPTGPIKIFPFKSLRHLELRGVPLHCLHGLRGIYSQLETLICSRSLQALEELLSACGGDFCSALPWLALLSANFSYNALTALDSSLRLLSALRFLNLSHNQVQDCQGFLMDLCELHHLDISYNRLHLVPRMGPSGAALGVLILRGNELRSLHGLEQLRNLRHLDLAYNLLEGHRELSPLWLLAELRKLYLEGNPLWFHPEHRAATAQYLSPRARDAATGFLLDGKVLSLTDFQTHTSLGLSPMGPPLPWPVGSTPETSGGPDLSDSLSSGGVVTQPLLHKVKSRVRVRRASISEPSDTDPEPRTLNPSPAGWFVQQHPELELMSSFRERFGRNWLQYRSHLEPSGNPLPATPTTSAPSAPPASSQGPDTAPRPSPPQEEARGPQESPQKMSEEVRAEPQEEEEEKEGKEEKEEGEMVEQGEEEAGEEEEEEQDQKEVEAELCRPLLVCPLEGPEGVRGRECFLRVTSAHLFEVELQAARTLERLELQSLEAAEIEPEAQAQRSPRPTGSDLLPGAPILSLRFSYICPDRQLRRYLVLEPDAHAAVQELLAVLTPVTNVAREQLGEARDLLLGRFQCLRCGHEFKPEEPRMGLDSEEGWRPLFQKTESPAVCPNCGSDHVVLLAVSRGTPNRERKQGEQSLAPSPSASPVCHPPGHGDHLDRAKNSPPQAPSTRDHGSWSLSPPPERCGLRSVDHRLRLFLDVEVFSDAQEEFQCCLKVPVALAGHTGEFMCLVVVSDRRLYLLKVTGEMREPPASWLQLTLAVPLQDLSGIELGLAGQSLRLEWAAGAGRCVLLPRDARHCRAFLEELLDVLQSLPPAWRNCVSATEEEVTPQHRLWPLLEKDSSLEARQFFYLRAFLVEGPSTCLVSLLLTPSTLFLLDEDAAGSPAEPSPPAASGEASEKVPPSGPGPAVRVREQQPLSSLSSVLLYRSAPEDLRLLFYDEVSRLESFWALRVVCQEQLTALLAWIREPWEELFSIGLRTVIQEALALDR [STK11IP]”, the “solubility change mitosis (log2)” value with HeLa Kyoto [1] is -0.0941. Moreover, in the series with HeLa Kyoto [2], the “solubility in G1/S (log2)” value is -0.0528. The thermal stability score was -0.272 with HeLa Kyoto [3] (setting [4]) and -1.04 in the series on HeLa Kyoto [3] (cell cycle stage: mitosis).

With “MTTLDHVIATHQSEWVSFNEEPPFPAHSQGGTEEHLPGLSSSPDQSESSSGENHVVDGGSQDHSHSEQDDSSEKMGLISEAASPPGSPEQPPPDLASAISNWVQFEDDTPWASTSPPHQETAETALPLTMPCWTCPSFDSLGRCPLTSESSWTTHSEDTSSPSFGCSYTDLQLINAEEQTSGQASGADSTDNSSSLQEDEEVEMEAISWQASSPAMNGHPAPPVTSARFPSWVTFDDNEVSCPLPPVTSPLKPNTPPSASVIPDVPYNSMGSFKKRDRPKSTLMNFSKVQKLDISSLNRTPSVTEASPWRATNPFLNETLQDVQPSPINPFSAFFEEQERRSQNSSISSTTGKSQRDSLIVIYQDAISFDDSSKTQSHSDAVEKLKQLQIDDPDHFGSATLPDDDPVAWIELDAHPPGSARSQPRDGWPMMLRIPEKKNIMSSRHWGPIFVKLTDTGYLQLYYEQGLEKPFREFKLEICHEISEPRLQNYDENGRIHSLRIDRVTYKEKKKYQPKPAVAHTAEREQVIKLGTTNYDDFLSFIHAVQDRLMDLPVLSMDLSTVGLNYLEEEITVDVRDEFSGIVSKGDNQILQHHVLTRIHILSFLSGLAECRLGLNDILVKGNEIVLRQDIMPTTTTKWIKLHECRFHGCVDEDVFHNSRVILFNPLDACRFELMRFRTVFAEKTLPFTLRTATSVNGAEVEVQSWLRMSTGFSANRDPLTQVPCENVMIRYPVPSEWVKNFRRESVLGEKSLKAKVNRGASFGSTSVSGSEPVMRVTLGTAKYEHAFNSIVWRINRLPDKNSASGHPHCFFCHLELGSDREVPSRFANHVNVEFSMPTTSASKASVRSISVEDKTDVRKWVNYSAHYSYQVALGSIWLMLPTPFVHPTTLPLLFLLAMLTMFAW [STON2]”, the “solubility change mitosis (log2)” value with HeLa Kyoto [1] was found to be 0.444. Further, the “solubility in G1/S (log2)” value in the series with HeLa Kyoto [2] is -0.622. Besides, the results for the thermal stability score with HeLa Kyoto [3] (setting [4]) and in the series on HeLa Kyoto [3] (cell cycle stage: mitosis) were 0.129 and -0.103, respectively.

As for “MTVEQNVLQQSAAQKHQQTFLNQLREITGINDTQILQQALKDSNGNLELAVAFLTAKNAKTPQQEETTYYQTALPGNDRYISVGSQADTNVIDLTGDDKDDLQRAIALSLAESNRAFRETGITDEEQAISRVLEASIAENKACLKRTPTEVWRDSRNPYDRKRQDKAPVGLKNVGNTCWFSAVIQSLFNLLEFRRLVLNYKPPSNAQDLPRNQKEHRNLPFMRELRYLFALLVGTKRKYVDPSRAVEILKDAFKSNDSQQQDVSEFTHKLLDWLEDAFQMKAEEETDEEKPKNPMVELFYGRFLAVGVLEGKKFENTEMFGQYPLQVNGFKDLHECLEAAMIEGEIESLHSENSGKSGQEHWFTELPPVLTFELSRFEFNQALGRPEKIHNKLEFPQVLYLDRYMHRNREITRIKREEIKRLKDYLTVLQQRLERYLSYGSGPKRFPLVDVLQYALEFASSKPVCTSPVDDIDASSPPSGSIPSQTLPSTTEQQGALSSELPSTSPSSVAAISSRSVIHKPFTQSRIPPDLPMHPAPRHITEEELSVLESCLHRWRTEIENDTRDLQESISRIHRTIELMYSDKSMIQVPYRLHAVLVHEGQANAGHYWAYIFDHRESRWMKYNDIAVTKSSWEELVRDSFGGYRNASAYCLMYINDKAQFLIQEEFNKETGQPLVGIETLPPDLRDFVEEDNQRFEKELEEWDAQLAQKALQEKLLASQKLRESETSVTTAQAAGDPEYLEQPSRSDFSKHLKEETIQIITKASHEHEDKSPETVLQSAIKLEYARLVKLAQEDTPPETDYRLHHVVVYFIQNQAPKKIIEKTLLEQFGDRNLSFDERCHNIMKVAQAKLEMIKPEEVNLEEYEEWHQDYRKFRETTMYLIIGLENFQRESYIDSLLFLICAYQNNKELLSKGLYRGHDEELISHYRRECLLKLNEQAAELFESGEDREVNNGLIIMNEFIVPFLPLLLVDEMEEKDILAVEDMRNRWCSYLGQEMEPHLQEKLTDFLPKLLDCSMEIKSFHEPPKLPSYSTHELCERFARIMLSLSRTPADGR [USP25]”, in the series with HeLa Kyoto [1], the “solubility change mitosis (log2)” value was -0.00837. Also, in the series on HeLa Kyoto [2], the “solubility in G1/S (log2)” value was found to be 0.123. Moreover, the thermal stability score in the series on HeLa Kyoto [3] (setting [4]) is -0.404; with HeLa Kyoto [3] (cell cycle stage: mitosis), 0.0462.

Consider “MVQKYQSPVRVYKYPFELIMAAYERRFPTCPLIPMFVGSDTVNEFKSEDGAIHVIERRCKLDVDAPRLLKKIAGVDYVYFVQKNSLNSRERTLHIEAYNETFSNRVIINEHCCYTVHPENEDWTCFEQSASLDIKSFFGFESTVEKIAMKQYTSNIKKGKEIIEYYLRQLEEEGITFVPRWSPPSITTSSETSSSSSKKQAASMAVVIPEAALKEGLSGDALSSPSAPEPVVGTPDDKLDADYIKRYLGDLTPLQESCLIRLRQWLQETHKGKIPKDEHILRFLRARDFNIDKAREIMCQSLTWRKQHQVDYILETWTPPQVLQDYYAGGWHHHDKDGRPLYVLRLGQMDTKGLVRALGEEALLRYVLSINEEGLRRCEENTKVFGRPISSWTCLVDLEGLNMRHLWRPGVKALLRIIEVVEANYPETLGRLLILRAPRVFPVLWTLVSPFIDDNTRRKFLIYAGNDYQGPGGLLDYIDKEIIPDFLSGECMCEVPEGGLVPKSLYRTAEELENEDLKLWTETIYQSASVFKGAPHEILIQIVDASSVITWDFDVCKGDIVFNIYHSKRSPQPPKKDSLGAHSITSPGGNNVQLIDKVWQLGRDYSMVESPLICKEGESVQGSHVTRWPGFYILQWKFHSMPACAASSLPRVDDVLASLQVSSHKCKVMYYTEVIGSEDFRGSMTSLESSHSGFSQLSAATTSSSQSHSSSMISR [SEC14L1]”, for which the “solubility change mitosis (log2)” value with HeLa Kyoto [1] was -0.126. In addition, the “solubility in G1/S (log2)” value in the series on HeLa Kyoto [2] was -0.0916. For the same substance, the thermal stability score is -0.528 in the series on HeLa Kyoto [3] (setting [4]) and 0.106 with HeLa Kyoto [3] (cell cycle stage: mitosis).

On to “MWKRSEQMKIKSGKCNMAAAMETEQLGVEIFETADCEENIESQDRPKLEPFYVERYSWSQLKKLLADTRKYHGYMMAKAPHDFMFVKRNDPDGPHSDRIYYLAMSGENRENTLFYSEIPKTINRAAVLMLSWKPLLDLFQATLDYGMYSREEELLRERKRIGTVGIASYDYHQGSGTFLFQAGSGIYHVKDGGPQGFTQQPLRPNLVETSCPNIRMDPKLCPADPDWIAFIHSNDIWISNIVTREERRLTYVHNELANMEEDARSAGVATFVLQEEFDRYSGYWWCPKAETTPSGGKILRILYEENDESEVEIIHVTSPMLETRRADSFRYPKTGTANPKVTFKMSEIMIDAEGRIIDVIDKELIQPFEILFEGVEYIARAGWTPEGKYAWSILLDRSQTRLQIVLISPELFIPVEDDVMERQRLIESVPDSVTPLIIYEETTDIWINIHDIFHVFPQSHEEEIEFIFASECKTGFRHLYKITSILKESKYKRSSGGLPAPSDFKCPIKEEIAITSGEWEVLGRHGSNIQVDEVRRLVYFEGTKDSPLEHHLYVVSYVNPGEVTRLTDRGYSHSCCISQHCDFFISKYSNQKNPHCVSLYKLSSPEDDPTCKTKEFWATILDSAGPLPDYTPPEIFSFESTTGFTLYGMLYKPHDLQPGKKYPTVLFIYGGPQVQLVNNRFKGVKYFRLNTLASLGYVVVVIDNRGSCHRGLKFEGAFKYKMGQIEIDDQVEGLQYLASRYDFIDLDRVGIHGWSYGGYLSLMALMQRSDIFRVAIAGAPVTLWIFYDTGYTERYMGHPDQNEQGYYLGSVAMQAEKFPSEPNRLLLLHGFLDENVHFAHTSILLSFLVRAGKPYDLQIYPQERHSIRVPESGEHYELHLLHYLQENLGSRIAALKVI [DPP8]”, for which the “solubility change mitosis (log2)” value in the series on HeLa Kyoto [1] is -0.0129. In addition, the “solubility in G1/S (log2)” value in the series with HeLa Kyoto [2] was -0.288. Also, the thermal stability score was -0.204 with HeLa Kyoto [3] (setting [4]) and 0.0056 in the series on HeLa Kyoto [3] (cell cycle stage: mitosis).

For SOX13, the “solubility change mitosis (log2)” value with HeLa Kyoto [1] is 0.0877. The “solubility in G1/S (log2)” value with HeLa Kyoto [2] amounted to 0.191. For the same substance, the thermal stability score with HeLa Kyoto [3] (setting [4]) amounted to 0.734; with HeLa Kyoto [3] (cell cycle stage: mitosis), 0.151.
